Data as given in the DeepSol protein solubility set.

Test: soluble on expression in E. coli; label from the status in PepcDB or PDB records

Row | Sequence | soluble on expression in E. coli
1 | GPGSMVKPRSQGPRRPAVKQADNKSVGDRSKTAVTEKMKPSRLVGGTTGAKKERREGKKVSTGKANKVAATSASTVVLKEGGKPSGPSHGTGTNSSRRGKRSPQAQTRRAAARVASRVIESNSRITAATNRMNTAREELALFDQVTQMPAFVADPFTAIDEHLSTAMDFLQPQTPDVGRVKRE | soluble
2 | MRVCVIGAGLSGLAMGHALKERGISFVCLEKAPDVGGIWRQPGAGERGPGYQSLHLNTARQLTGYADFPMPSDYPLYPRHDQVAAYLRSFAEWAGLLDHVELRTEVLSVRQDSDGSWTVVSRDADGAQSARRFEQVVVASGHHTDPALPDPLPAGADSFAGTILHSLDYRDGGDFAGRRVVVVGLGASAVDIAADLSRHAERTLLSVRRGLHIVPKQVFGMSLDEIAEAPWWNEMPFAERRRWVEQALLVARGRLSDYGLPEPDHPILSSATTLSDEILSRIRHGAVTPKPAIASFESDRVVFTDGSSEAADTVVYCTGFHMTFPFLPPGCPVAADGAVELYRRIVPADRPGLYFVGLVRPAGALTRLVEAQAQWVARLVDGAAALPGTEEMREEISTYLAGIVERYGRTRGASIQVDVSPYLAEFREPLPVLEHHHHHH | soluble
3 | MEGIIVRRVIPSDNSCLFNAIGYVMDKDKNKAPELRQVIAAAVASNKEKYNEAFLGKLNEEYCAWILNPDKWGGAIELSILADYYGREIAAYDIQTSRCDLYGQTRNYDERVMLIYDGLHYDALALSPFEGAEEDFDMTIYPVGKDRSIGSIEGLALNLVKDQQRKRSYTDTANFTLRCGVCQIGVIGQKEAVEHAQATGHVNFQEYK | soluble
4 | MGSRNIVRAVLEEKKTEAITEVDEKGITCVMKFGGSSVASAERMKEVADLILTFPEESPVIVLSAMGKTTNNLLLAGEKAVSCGVSNASEIEELSIIKELHIRTVKELNIDPSVILTYLEELEQLLKGIAMMKELTLRTRDYLVSFGECLSTRIFAAYLNTIGVKARQYDAFEIGFITTDDFTNGDILEATYPAVAKRLYDDWMHDPAVPIVTGFLGKGWKTGAVTTLGRGGSDLTATTIGKALGLKEIQVWKDVDGVLTCDPTIYKRATPVPYLTFDEAAELAYFGAQVLHPQSMRPAREGEIPVRVKNSYNPKAPGTIITKTRDMTKSILTSIVLKRNVTMLDIASTRMLGQVGFLAKVFSIFEELGISVDVVATSEVSISLTLDPSKLWSRELIQQELDHVVEELEKIAVVNLLKGRAIISLIGNVQHSSLILERAFHVLYTKGVNVQMISQGASKVNISFIVNEAEAEGCVQALHKSFFESGDLSELLIQPRLGNGSPVRTLQVEN | soluble
5 | MGSDKIHHHHHHMTTTPLPTFSDDQAQAHDRIAEVLRDMGVDIDDDTLVPAKDTKSAVLAVTGKAGSGKTLLLAELVKALERTGVEIVSGDWEGKRRKDRRTVAVLAPTNKAASVLRNRGVPATTIHRILYTPMYDPEFEKVAEWLAGQGERPSIEALTDAAMDRAKEVYETTKSVPAALASAGLRGSDFITGWKRREDGLDIGLVDESSMLDDKQFQDLKEIFPTLVLFGDPAQLAPVGQSGEMIFDRFKGDNLLHLGRVHRQDADNPILDLAHALGDPQLEFRDFEQMIEDAAARDDRVVVSPRANSDMMARSPVLVWRNATRIRLIAAFRAAFGAGDDEILPGEPLICDGIELPLKHRKKRIDLEARGLIKGAPVVYLGPGNKPGFSRLHVMGAETPRFSAASIVKIEKPGEEEPFLPYAARMGAAFLHGAAVTMHKAQGSQWPEVQVFSPDLYAASRAGRMEAGQALWKRLAYVAITRAEERLFWVTRYMLSRPVHDLSTDDLTVKAAPLELEAEEDADTSTM | not soluble
6 | MAHHHHHHMYEVYYLNEHDEFEKKKKKNEEIQSSLILKNHAISSEKKSKLVKHNIYEGGYTIWECTWDMLKFFHKEGFDFNNKQVLELGCGHGLVGIKVLLDNGNVVFQELNKEVINDVLLPNIKKNLKMKLKKKKLKENKHYMKINNDKITCYVINKPWHKLNSKLQKKKLNCFDFILGNEILYRKENYYHILKILKKNLKKGGKAYFGSKSYYFGFEDGTGSNSFVTYVNNNEHFNFVARIIQTTTGKSVYSKDIIEVTFSPNND | not soluble
7 | MTVEQNVLQQSAAQKHQQTFLNQLREITGINDAQILQQALKDSNGNLELAVAFLTAKNAKTPPQEET | soluble
8 | MSLQSVKVNIPFWLTGSPNVGFEYTLTRQLTVNGEVLWMPYLFKKHEEVFRALQSSVELRYYVNPRNFYTNDSWDGFYIGPYAMYGNFNIGLLKHNDPLQSYRRKGWGVSGGISTGYKFAFNSRWGLDLNIGLGYAHLQYNKYYLGGEYVNFPLERKKTKRWIGPTKFGINLTYNIFREGHHHHHH | not soluble
9 | NPVSKRSRGKGMLGGAKRAARTHRASGTAVEELVFPYEHPVPQVGTLTSVELTIPLMRDGVVVEGLPTLEESRAYLAQQLVTIPWEGLALSRDEPVLATRHVGFDQ | not soluble
10 | NRRIVARLIGLGDSIDAIIKNDLSHPIVVDGNDEIGRLSEKLIEYGEKVQEIQRTNALSLINNTTASLITSDLNGVVESANLSARKLLKLGEVNESYPIWEYFPESCREQLKKVFDGSHLWIELGKIHVTLSLGDEKPKYVRFDIRPFAHGAEYKLIMTITDVTHQEMTTRTLESRVLEKTQDLLLKNQQLENEIEERIRTEDNLKKTQDELIQAAKMAVVGQTMTSLAHELNQPLNAMSTYLYSARMFLEQESPEKVGESITHIEGLATRMSKIINSLRQFARKPEGEREVKFVSVHEVAEQASTIVNTRAKRQQIIIENQLPDDVKVQGDMLALEQVFINVLVNSCDALMESTRDEQKRIQMALVERTSQTTLIAISDNGIGFGEEIVQRIFQPFVSTKEVGLGLGMNICKSLIEKHKGSIYLASSLEKGAMVVLELPNEQ | not soluble
11 | MERINFIFGIHNHQPLGNFGWVFEEAYNRSYRPFMEILEEFPEMKVNVHFSGPLLEWIEENKPDYLDLLRSLIKRGQLEIVVAGFYEPVLAAIPKEDRLVQIEMLKDYARKLGYDAKGVWLTERVWQPELVKSLREAGIEYVVVDDYHFMSAGLSKEELFWPYYTEDGGEVITVFPIDEKLRYLIPFRPVKKTIEYLESLTSDDPSKVAVFHDDGEKFGVWPGTYEWVYEKGWLREFFDAITSNEKINLMTYSEYLSKFTPRGLVYLPIASYFEMSEWSLPAKQAKLFVEFVEQLKEEGKFEKYRVFVRGGIWKNFFFKYPESNFMHKRMLMVSKAVRDNPEARKYILKAQCNDAYWHGVFGGIYLPHLRRTVWENIIKAQRYLKPENKILDVDFDGRAEIMVENDGFIATIKPHYGGSIFELSSKRKAVNYNDVLPRRWEHYHEVPEATKPEKESEEGIASIHELGKQIPEEIRRELAYDWQLRAILQDHFIKPEETLDNYRLVKYHELGDFVNQPYEYEMIENGVKLWREGGVYAEEKIPARVEKKIELTEDGFIAKYRVLLEKPYKALFGVEINLAVHSVMEKPEEFEAKEFEVNDPYGIGKVRIELDKAAKVWKFPIKTLSQSEAGWDFIQQGVSYTMLFPIEKELEFTVRFREL | soluble
12 | MSLRGMRIDAYIAEHARKNPDQLALEDGKKSISYSCLDEDINKVASSLDGFEHCKFAILAESGIQYVKILMAVYRSGNIAIPLPIEMQGRSLERILDTACINNIIATKKQYSRFGDGFFERFGTVIVVSDDTSVETLSRRMILERNDPRLRLVLYTSGTTGTPKGVMLSDKNLVSNARSITGILSIGSKDKAALVISPHHAFGNSIINSHLMAGSSIQIGTMNFIDPVFSLIESGVSIFYGVPSTYRILLKYPERFRKAFQNVRTAASAGGAMDRTVVRSIRELSPDTQILPMYGQTEATARLSYLPAEDVDEFIDTIGKAIPGVTLEVFDTENRPVEPGVTGELVARGDNILLGYLNDEAATEKKIIDGWLHTGDLAQKLRCGYIKLLGRKDDLIKIGDHRVNPREIEKEIEMNNEVSSVFVVPVSHELMGNAISLMVIPNERTEIDTIFSFCRKNLPGYLYPREILFIDHLPLSENGKISNRSIIEEYQHVKASEGHHHHHH | soluble
13 | MSLKSADSATQQYLKEKHEEYLSLQHGLQRREETLLATVNQIVVNQHAFLLHQAALAPLLLRDVAKALQVNESTVSRTIKGKHLQTDLGIFAFKDFFSKRTQAVSSSAYHSVDQLKFTMMQLIQSENKMCPASDNLLVKWLYEKGFKVARRTVTKYRNELGLPAASARKSREGHHHHHH | soluble
14 | MEAIDQLVGQWQKDGLSPSQVAEKFSKCVLYVTCEPCIMCASALSFLGIKEVYYGCPNDKFGGCGSILSLHLGSEEAQRGKGYKCRGGIMAEEAVSLFKCFYEQGNPNAPKPHRPVVQRERT | soluble
15 | TNDEETIQQQILALSADKRNFLRDPPAGVQFNFDFDQMYPVALVMLQEDELLSKMRFALVPKLVKEEVFWRNYFYRVSLIKQSAQLT | soluble
16 | MGSDKIHHHHHHMDAFYASVEQRDNPELCGKPLAVGHAEERGVVAAASYEARRYGVHSAMSSQKAKRLCPELIFVPGRMNVYKAVSRQIHDIFHTYTDIIEPLSLDEAFLDVTENKAGFSLAIDIAKDIKKRIRKELGLIASAGVSYNKFLAKIASDYRKPDGLCTIHPDQALDFIAHLPIESFWGVGPVTAQKMHALGIHNGTQLQACTLEMLTRQFGKAGNLYYDFARGIDLRPVEPIRIRKSVGCEHTLEKDISLHSSAIIELYHVVTELLERLKRTNFSGNTLTLKIKFHDFNQITRSITQDSELTSMDKILPLAKKLLKEIDYESHPIRLIGLSVSNPKEEIKKQWEQLSLEFKEWDD | not soluble
17 | MTYMVSILLVSPRPGHDVATAERNDVLRATGLAPEQLEQVLIDDVEKHLPDFSRFDGIIVGGSPLNISNETYSDWQKHVHTELSRIVYSAIPSFFICYGNSFLVDLTGGTVGRTHPEDSGATIVSLTADGLTDRITRDLPTTFTSLTGHTENAICLGDSTVLLATGDTCPIQMIRANETTWACQFHAEMDAQAMKTRMDFYKDYGYFSPEDYDAIVSSLPSIDTTYSNRVLRNFIEVCEGKR | not soluble
18 | MIKVVGLGPGSKNALTLGTLEAVKNSQNIFFRTKKHPVVEYFDEIGIKYSTYDDKYETGESFDEVYDFIARDLVSKAKELKDIVYAVPGHPLVAEKSVQILIELCEKENIKVDIVPAVSFIDALMESLKIDPVKGLKIVDAFDIKNQILDKRLGIVITQVYNSFIASDVKLALLEYYKDDTEIYFVRAAGIENEESVRKIPLYELDRQSDIDYLTSVYVPCDINNNKDFYDLLNIMEILRGENGCPWDREQSHDTIKRALIEECYEAVEAIEKNDDDMMVEELGDVLFQVVFHAKIGKDEGYFNINDVISGICNKMIERHPHVFKNEQIKNSTEVLQKWDEIKRKQQDLNSYTEEMKHIPKILPALIRAEKVQKKASKVGFDFRNVEEALDKVLEETREVKDVYKGIIRDRIAEEVGDLIFSVVNIARLLDIDSEFALNYTIDKFIKRFYYIEKAAKDKNLKIESMSLEEMNALWDEAKLKIQ | not soluble
19 | KGKCVIFIIDGLGDRPNEKGLTPLKEAKTPTMDKIAKEGICGLMNAIDIGIRPGSDTAHLAILGYNPYEVYTGRGPLEAFGVGLDLKEGDIAFRCNFATVDENFVVLDRRAGRISPEEAEELEKEIDGLEIDGVKVIFKSSKGYRGALVLRGEGLSCRVSDGDPHEEGVKVSEIKPLDDSEEAKRTAEILNKLLKIVYEKLNNHPINEERRKKGLPPANIILPRGAGVVPKIEKFSEKYNMKGACICGTGLIKGMAKMIGLDVIEVEGATGTPKTNFMGKAKALVEALKEYDFVLVNVKGADEASHDGNYELKKEVLEKIDEMLAYVFEHINKDEVYFVLTGDHSTPIEMKDHSADPIPIVIWGKSVRVDDVTEFNEFACAKGALHWIKGEHVMKILLDLTG | not soluble
